Results published in PMC10493288, “Identification and characterization of a novel chromosomal aminoglycoside 3’-O-phosphotransferase, APH(3′)-Id, from Kluyvera intermedia DW18 isolated from the sewage of an animal farm” (Frontiers in Microbiology, 2023).

How the values were obtained:
Test in all cases: purified protein
Type in all cases: biochemical, Kluyvera intermedia
Details in all cases: 1 mM ATP, 1 mM MgCl2, 2 mM KCl, 100 mM HEPES pH 7.5
[1] = system: NC[C@@H]1O[C@H](O[C@H]2[C@@H](O)[C@H](O[C@@H]3[C@@H](O)[C@H](N)C[C@H](N)[C@H]3O[C@H]3O[C@H](CO)[C@@H](O)[C@H](O)[C@H]3N)O[C@@H]2CO)[C@H](N)[C@@H](O)[C@@H]1O
[2] = system: NC[C@H]1O[C@H](O[C@H]2[C@H](O)[C@@H](O[C@H]3O[C@H](CO)[C@@H](O)[C@H](N)[C@H]3O)[C@H](N)C[C@@H]2N)[C@H](O)[C@@H](O)[C@@H]1O
[3] = system: NC[C@H]1O[C@H](O[C@H]2[C@H](O[C@@H]3O[C@H](CO)[C@@H](O)[C@H]3O)[C@@H](O)[C@H](N)C[C@@H]2N)[C@H](N)[C@@H](O)[C@@H]1O

## APH(3′)-Id (Kluyvera intermedia)
[1]
  Km: 12.19 ± 1.56 µM
  kcat: 2.64 ± 0.072 s⁻¹
  kcat/Km: 218000 ± 21000 M⁻¹ s⁻¹
[2]
  Km: 10.04 ± 2.95 µM
  kcat: 1.06 ± 0.114 s⁻¹
  kcat/Km: 110000 ± 18000 M⁻¹ s⁻¹
[3]
  Km: 3.831 ± 1.57 µM
  kcat: 1.73 ± 0.023 s⁻¹
  kcat/Km: 496000 ± 163000 M⁻¹ s⁻¹
